Drawing on patent US20070054863A1 (SANFORD BURNHAM MEDICAL RESEARCH INSTITUTE, published 2007), this text covers binding result and Kd for seven molecules.

The target in test [1] is T1, Bcl-2 (UniProt P10415 1-239).
T1 construct: Cellular Bcl-2 in co-immunoprecipitation and immunostaining assays; also called endogenous Bcl-2
The test can be described thus: not described at this place.

The target of test [2] is T2, Nur77 (Homo sapiens (Human), UniProt P22736 1-598).
T2 construct: also called TR3; NGFI-B
Briefly: not described.

Test [3] addresses T3, GST-Bcl-XL (UniProt P08515 1-218 = GST; Q07817 1-211).
T3 construct: Control protein in FP and CD assays
Briefly: fluorescence polarization. Here is the method: (§1) Fluorescence polarization (FP) analysis was used to determine whether NuBCPs interacted directly with Bcl-2. […] GST-Bcl-2, but not GST-Bcl-XL or GST, induced a concentration-dependent FP of FITC-NuBCP-9-r8 and FITC-D-NuBCP-9-r8, while FITC-NuBCP-9/AA-r8 was little affected (FIG. 2C-E). […] Thus, NuBCP-9 and D-NuBCP-9 bind directly and competitively to Bcl-2.
(§2) Fluorescence polarization (FP) assays. GST-Bcl-2, GST-Bcl-XL, or GST protein was briefly incubated with FITC-conjugated peptide with or without competitors in Greiner Fluotrac 600 96-well microplates. Fluorescence polarization was recorded using an Analyst HT 96-384 microplate reader (Molecular Devices, Sunnyvale, Calif.) with excitation wavelength set at 485 nm and dynamic polarizer for emission at 530 nm.
A general note: Polarisation of emitted light reports the rotation of a fluorescent probe.

In test [4] the target is T4, GST (UniProt P08515 1-218 = GST).
T4 construct: Control protein in FP and CD assays; also called GST protein
T4 sequence (P08515 whole entry): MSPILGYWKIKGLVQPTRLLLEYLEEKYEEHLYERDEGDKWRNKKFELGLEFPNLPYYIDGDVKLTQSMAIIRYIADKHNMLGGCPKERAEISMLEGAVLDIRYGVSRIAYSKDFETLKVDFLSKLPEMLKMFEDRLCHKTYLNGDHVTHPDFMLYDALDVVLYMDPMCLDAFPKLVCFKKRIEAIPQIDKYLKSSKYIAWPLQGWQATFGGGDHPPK
Briefly: fluorescence polarization. The method, then:
as §1, §2

In test [5] the target is T1, Bcl-2. Briefly: immunoprecipitation.
The target of test [6] is T5, GST-Bcl-2 (UniProt P08515 1-218 = GST; P10415 1-218).
T5 construct: Bacterially expressed, purified GST fusion used in FP, CD and in vitro immunoprecipitation; also called purified GST-Bcl-2 protein; bacterially expressed Bcl-2
T5 sequence (P08515 1-218, tags or fused parts left off): as the sequence (P08515 whole entry) above
Briefly: circular dichroism of GST-Bcl-2 with peptide, non-linear regression, one-site-binding model. Here is the method: We then explored whether the Bcl-2 conformational change by Bcl-2 was a direct consequence of Nur77 binding. Experiments were performed to determine whether NuBCPs could induce a conformational change of bacterially expressed Bcl-2. To this end, the ability of purified GST-Bcl-2 protein to react with anti-Bcl-2/BH3 antibody in the presence of NuBCP was analyzed by immunoprecipitation assay. […] In contrast, NuBCP-9, D-NuBCP-9 and NuBCP-9/AA had no effect on CD spectra for GST or Bcl-XL (FIGS. 9-11). Thus, the NuBCP-induced Bcl-2 conformational change observed in cells can be accounted for by direct binding of NuBCPs to Bcl-2.
Circular dichroism (CD) spectroscopy. Stock solutions of 3 mM peptide in 30% acetonitrile/water were added to 0.5 mL of 2 μM purified GST-proteins in PBS, pH 7.6. CD spectra were obtained in a 0.2 cm pathlength cell at 20° C. using an AVIV 62 DS spectropolarimeter for a wavelength range from 200 to 260 nm with a step size of 1 nm averaged for 5 sec. Three spectra were corrected for background and averaged for each sample. The Kd was determined using nonlinear regression analysis for a one-site-binding model (χ2>0.98). Stoichiometry was determined from a […] (Jones, G. et al. 2002 Tet. Let. 43 :6079-6082).
(In general: Circular dichroism is widely used to follow secondary structure.)

The target in test [7] is T5, GST-Bcl-2. The test can be described thus: fluorescence polarization competition. Here is the method: as §1, §2

[ ]: non-standard residue; d: D form. The star is where a group is joined. FITC = O=C1OC2(c3ccc(O)cc3Oc3cc(O)ccc32)c2ccc(NC(=S)*)cc21; Ahx = NCCCCCC(=O)O

T1 sequence (P10415 whole entry): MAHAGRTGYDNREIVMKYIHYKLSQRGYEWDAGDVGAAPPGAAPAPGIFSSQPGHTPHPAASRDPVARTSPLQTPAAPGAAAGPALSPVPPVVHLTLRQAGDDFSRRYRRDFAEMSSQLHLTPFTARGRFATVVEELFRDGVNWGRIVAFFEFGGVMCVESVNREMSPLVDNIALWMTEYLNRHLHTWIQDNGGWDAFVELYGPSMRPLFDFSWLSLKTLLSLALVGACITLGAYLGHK
T3 sequence (P08515 1-218, tags or fused parts left off): as the sequence (P08515 whole entry) above

B1: Nur77 fragment DC-3 (other)
chain: GLVLHRLQCARGFGDWIDSILAFSRSLHSLLVDVPAFACLSALVLITDRHGLQEPRRVEELQNRIASCLKEHVAAVAGEPQPASCLSRLLGKLPELRTLCTQGLQRIFYLKLEDLVPPPPIIDKIFMDTLPF
Regarding B1, in test [1], the binding result is on record as “binds”.

B2: Bfl-1 (other, UniProt Q16548 1-175, looked up)
chain: MTDCEFGYIYRLAQDYLQCVLQIPQPGSGPSKTSRVLQNVAFSVQKEVEKNLKSCLDNVNVVSVDTARTLFNQVMEKEFEDGIINWGRIVTIFAFEGILIKKLLRQQIAPDVDTYKEISYFVAEFIMNNTGEWIRQNGGWENGFVKKFEPKSGWMTFLEVTGKICEMLSLLKQYC
As for B2, the binding result in test [2] is given as “binds”.

B3: Bcl-B (other, UniProt Q9HD36 1-204, looked up)
chain: MVDQLRERTTMADPLRERTELLLADYLGYCAREPGTPEPAPSTPEAAVLRSAAARLRQIHRSFFSAYLGYPGNRFELVALMADSVLSDSPGPTWGRVVTLVTFAGTLLERGPLVTARWKKWGFQPRLKEQEGDVARDCQRLVALLSSRLMGQHRAWLQAQGGWDGFCHFFRTPFPLAFWRKQLVQAFLSCLLTTAFIYLWTRLL
Turning to B3, the binding result in test [2] is given as “binds”.

B4: FITC-NuBCP-9-r8 (peptide)
peptide: {FITC}-FSRSLHSLLG[Ahx][dR][dR][dR][dR][dR][dR][dR][dR]-NH2
modifications: not fully specified
notes: The point of attachment of FITC is not described beyond the name; also called FITC-L-NuBCP-9-r8
On to B4, for which the binding result in test [3] and in test [4] was “no binding” each time.

B5: NuBCP-20-r8 (peptide)
peptide: GDWIDSILAFSRSLHSLLVDKKCXRRRRRRRR
modifications: not fully specified; N-terminal acetyl; C-terminal Cys thiol linked to chloroacetylated 6-aminohexanoyl (X); eight D-arginines (r8)
notes: also called NuBCP-20-r8-peptide; TR3 peptide
Turning to B5, the binding result in test [5] is on record as “binds”.

As usually defined, the Kd is the constant that tells how readily two partners part at equilibrium. High values mean a looser complex, low ones a tighter complex. Turning to Ac-FSRSLHSLL-NH2 [NuBCP-9 (unconjugated)], the affinity in test [6], expressed as Kd, was 2100 nM. In other words, the single-digit micromolar range.

With Ac-ASRSLHSLA-NH2 (Unconjugated form) [NuBCP-9/AA (unconjugated)], the binding result in test [7] is “no binding”.
